Test results as given in patent publication US20140288003A1.

Biological target: Smad3
Experiment: cell-based or functional assay

activation of the collagen 1α2 proximal promoter (luciferase assay, NIH 3T3 fibroblasts co-transfected with Scx and Smad3): 35 % increase
Substance: scleraxis (mouse Scx expressed from pECE-HA-FLAG-Scx) (from UniProt Q64124 1-207)
